Drawing on patent US20090082410A1, this text covers arrestinGFP translocation response (Fgrains, INCell Analyzer), U2OS cells, 1:4 dilution of GRK2-C20 baculovirus, no ligand, arrestinGFP translocation response (Fgrains, INCell Analyzer), U2OS cells, 1:256 dilution of GRK2-C20 baculovirus, no ligand and arrestinGFP translocation response (Fgrains, INCell Analyzer), U2OS cells, no added GRK2-C20, no ligand for one substance.

The assay deals with angiotensin II type 1A receptor. In words: cell-based or functional assay.

arrestin-GFP registered an arrestinGFP translocation response (Fgrains, INCell Analyzer), U2OS cells, 1:4 dilution of GRK2-C20 baculovirus, no ligand of 305 Fgrains; an arrestinGFP translocation response (Fgrains, INCell Analyzer), U2OS cells, 1:256 dilution of GRK2-C20 baculovirus, no ligand of 77 Fgrains; an arrestinGFP translocation response (Fgrains, INCell Analyzer), U2OS cells, no added GRK2-C20, no ligand of 18 Fgrains.
